From publication PMC8238519 (Biochemical Journal, 2021)
Each block holds one molecule with its values, some of them ahead of it.

Tests used:
[1] = target: Chlamydomonas reinhardtii photosystem I PsaA-Asp648Arg (Chlamydomonas reinhardtii) (UniProt P12154)
[2] = target: pea PsaA (Pisum sativum (pea), UniProt P05310 16-758); test: cryo-EM structure
[3] = target: pea PsaB (Pisum sativum (pea), UniProt P05311 13-734); test: cryo-EM structure
pea PsaB, sequence (P05311 13-734): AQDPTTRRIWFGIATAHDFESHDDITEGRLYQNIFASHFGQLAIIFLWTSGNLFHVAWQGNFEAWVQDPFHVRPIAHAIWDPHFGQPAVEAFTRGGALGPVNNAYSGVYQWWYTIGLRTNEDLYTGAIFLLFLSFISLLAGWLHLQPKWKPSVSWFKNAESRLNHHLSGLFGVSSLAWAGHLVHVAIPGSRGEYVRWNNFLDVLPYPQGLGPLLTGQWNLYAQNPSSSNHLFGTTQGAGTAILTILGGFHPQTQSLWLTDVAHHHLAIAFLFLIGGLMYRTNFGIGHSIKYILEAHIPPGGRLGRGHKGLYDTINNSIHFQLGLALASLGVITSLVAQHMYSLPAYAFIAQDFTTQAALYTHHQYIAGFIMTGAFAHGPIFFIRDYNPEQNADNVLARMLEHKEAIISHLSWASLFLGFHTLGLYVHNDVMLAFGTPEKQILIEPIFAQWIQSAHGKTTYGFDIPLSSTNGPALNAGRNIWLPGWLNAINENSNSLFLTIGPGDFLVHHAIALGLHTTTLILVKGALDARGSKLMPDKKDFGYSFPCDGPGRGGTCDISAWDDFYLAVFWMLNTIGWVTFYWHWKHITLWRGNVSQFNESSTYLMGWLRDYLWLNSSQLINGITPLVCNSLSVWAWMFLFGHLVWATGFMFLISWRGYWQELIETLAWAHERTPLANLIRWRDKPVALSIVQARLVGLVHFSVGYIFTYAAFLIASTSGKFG

pea PsaA, sequence (P05310 16-758): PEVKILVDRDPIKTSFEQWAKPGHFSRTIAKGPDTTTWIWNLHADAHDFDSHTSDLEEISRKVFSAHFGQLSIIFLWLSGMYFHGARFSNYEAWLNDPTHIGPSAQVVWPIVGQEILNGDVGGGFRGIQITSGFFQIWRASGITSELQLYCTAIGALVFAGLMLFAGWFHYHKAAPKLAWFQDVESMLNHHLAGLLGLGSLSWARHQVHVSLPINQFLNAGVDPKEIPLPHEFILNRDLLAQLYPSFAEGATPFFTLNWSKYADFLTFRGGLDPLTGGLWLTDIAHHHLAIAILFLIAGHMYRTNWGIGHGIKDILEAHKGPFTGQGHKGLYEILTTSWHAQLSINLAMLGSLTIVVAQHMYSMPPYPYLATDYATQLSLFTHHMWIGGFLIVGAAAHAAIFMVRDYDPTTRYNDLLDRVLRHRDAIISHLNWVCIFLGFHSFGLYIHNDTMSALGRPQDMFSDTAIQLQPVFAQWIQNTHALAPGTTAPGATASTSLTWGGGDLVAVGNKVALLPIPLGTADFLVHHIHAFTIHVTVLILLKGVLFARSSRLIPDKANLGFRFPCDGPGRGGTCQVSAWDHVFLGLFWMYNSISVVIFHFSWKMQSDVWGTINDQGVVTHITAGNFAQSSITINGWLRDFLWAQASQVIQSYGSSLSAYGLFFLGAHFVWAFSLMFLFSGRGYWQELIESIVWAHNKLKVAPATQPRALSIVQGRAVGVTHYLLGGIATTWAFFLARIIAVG

Molecule: Chlamydomonas reinhardtii plastocyanin (natural protein)
second-order rate constant of P700+ reduction by Pc (single flash absorption) [1]: 6.54e+07 M⁻¹ s⁻¹

binding result [2]: binds
binding result [3]: binds
B1: pea plastocyanin (natural protein, pea (Pisum sativum), UniProt P16002 70-168, looked up)
chain: VEVLLGASDGGLAFVPSSLEVSAGETIVFKNNAGFPHNVVFDEDEIPAGVDASKISMPEEDLLNAPGETYSVKLDAKGTYKFYCSPHQGAGMVGQVTVN
